Numbering of substitutions follows the chain as printed.
What was measured:
[1] = molecular target: T1, murine FolR1 ECD-AcTev-Fcknob-Avitag + Fc hole, biotinylated monomeric Fc fusion (murine, UniProt P0DOX5 223-449 = IgG part); assay: SPR, IgG single injection
T1 construct: also called muFolR1; murine FolR1-Fc

[2] = molecular target: T1, murine FolR1 ECD-AcTev-Fcknob-Avitag + …; assay: SPR ProteOn, Fab analyte
Procedure: Immobilization of antigens (ligand): Recombinant antigens were diluted with PBST (10 mM phosphate, 150 mM sodium chloride pH 7.4, 0.005% Tween 20) to 10 μg/ml, then injected at 30 μl/minute in vertical orientation. Injection of analytes: For ‘one-shot kinetics’ measurements, injection direction was changed to horizontal orientation, two-fold dilution series of purified Fab (varying concentration ranges) were injected simultaneously along separate channels 1-5, with association times of 150 or 200 s, and dissociation times of 200 or 600 s, respectively. Buffer (PBST) was injected along the sixth channel to provide an “in-line” blank for referencing. Association rate constants (kₒₙ) and dissociation rate constants (koff) were calculated using a simple one-to-one Langmuir binding model in ProteOn Manager v3.1 software by simultaneously fitting the association and dissociation sensorgrams. The equilibrium dissociation constant (KD) was calculated as the ratio koff/kₒₙ.

cynomolgus Tim3 (ELISA) [3] = molecular target: T2, cynomolgus Tim3 (ELISA) (cynomolgus, UniProt A0A2K5U3G7 22-193); assay: ELISA, cyno Tim3
T2 construct: also called Biochem Cyno; cyno TIM3
T2 sequence: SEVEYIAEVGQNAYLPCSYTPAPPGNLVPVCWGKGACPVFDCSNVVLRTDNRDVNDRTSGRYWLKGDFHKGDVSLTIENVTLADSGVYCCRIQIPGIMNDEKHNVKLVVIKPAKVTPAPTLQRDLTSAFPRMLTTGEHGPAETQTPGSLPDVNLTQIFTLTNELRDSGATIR

Tim3-ECD-His-Biotin [4] = molecular target: T3, Tim3-ECD-His-Biotin (human, UniProt Q8TDQ0 22-202); assay: ELISA, human Tim3
T3 construct: also called human Tim3 (ELISA); Biochem Human

human TIM-3 on cells [5] = molecular target: T4, human TIM-3 on cells (human, UniProt Q8TDQ0 22-301); assay: cell ELISA, CHO-Tim3
T4 construct: also called CHO-Tim3; rec CHOK1 cells expressing huTIM-3

cynomolgus Tim3 (ELISA) [6] = molecular target: T2, cynomolgus Tim3 (ELISA); assay: ELISA, cyno Tim3; EC50 relative to the sample's max value
Tim3-ECD-His-Biotin [7] = molecular target: T3, Tim3-ECD-His-Biotin; assay: ELISA, human Tim3; EC50 relative to the sample's max value
human TIM-3 on cells [8] = molecular target: T4, human TIM-3 on cells; assay: cell ELISA, CHO-Tim3; EC50 relative to the sample's max value
human TIM-3 on cells [9] = molecular target: T4, human TIM-3 on cells; assay: cell-based or functional assay
human TIM-3 on cells [10] = molecular target: T4, human TIM-3 on cells; assay: cell-based or functional assay; remark: listed apart in the source
[11] = molecular target: T5, cynomolgus TIM-3 on isolated cyno CD14+ monocytes (cynomolgus); assay: flow cytometry, cyno CD14+ monocytes cyno1
T5 construct: whole, on cells

[12] = molecular target: T5, cynomolgus TIM-3 on isolated cyno CD14+ …; assay: flow cytometry, cyno CD14+ monocytes cyno2
Source text: (§1) CD14+ Monocytes were isolated from cynomolgus monkey anticoagulated peripheral blood (Covance) by density gradient centrifugation using Ficoll-Paque (GE Healthcare) (see General Protocols in the User Manuals or visit www.miltenyibiotec.com/protocols) and subsequent positive selection via NHP CD14 MicroBeads. First the CD14+ cells are magnetically labeled with CD14 MicroBeads. Then the cell suspension is loaded onto a MACS® Column which is placed in the magnetic field of a MACS Separator. The magnetically labeled CD14+ cells are retained in the column. The unlabeled cells run through, this cell fraction is depleted of CD14+ cells. After removal of the column from the magnetic field, the magnetically retained CD14+ cells can be eluted as the positively selected cell fraction. After centrifugation at 200×g for 10 min at room temperature the monocytes were harvested and used directly in binding assay or resuspended in freezing medium (10% DMSO, 90% FCS) at 1.0E+07 cells/ml and stored in liquid nitrogen.
(§2) 1×10⁵ CD14+ isolated cyno monocytes (50 μl/well) were put into 98 well-v bottom MTP in fresh culture medium and incubated with Redimune® NF Liquid for 15 min at RT to block unspecific binding. Than 50 μl/well of Alexa488 labeled anti-TIM3 (10 μg/ml in cell culture medium) were added and incubated for 1 h at 4° C. After washing and centrifugation MFI signals of stained cells were analyzed by BD Biosciences FACSCanto flow cytometer.

[13] = molecular target: T5, cynomolgus TIM-3 on isolated cyno CD14+ …; assay: flow cytometry, cyno CD14+ monocytes cyno3
Source text: as §1, §2

human TIM-3 on cells [14] = molecular target: T4, human TIM-3 on cells; assay: flow cytometry, human CD14+ monocytes donor1
Source text: (§3) CD14+ Monocytes were isolated from anticoagulated peripheral blood of healthy donors by density gradient centrifugation using Ficoll-Paque (GE Healthcare) (see General Protocols in the User Manuals or visit www.miltenyibiotec.com/protocols) and subsequent positive selection via CD14 MicroBeads. First the CD14+ cells are magnetically labeled with CD14 MicroBeads. Then the cell suspension is loaded onto a MACS® Column which is placed in the magnetic field of a MACS Separator. The magnetically labeled CD14+ cells are retained in the column. The unlabeled cells run through, this cell fraction is depleted of CD14+ cells. After removal of the column from the magnetic field, the magnetically retained CD14+ cells can be eluted as the positively selected cell fraction. After centrifugation at 200×g for 10 min at room temperature the monocytes were harvested and used directly in binding assay or resuspended in freezing medium (10% DMSO, 90% FCS) at 1.0E+07 cells/ml and stored in liquid nitrogen.
(§4) 1×10⁵ CD14+ isolated human monocytes (50 μl/well) were put into 98 well-v bottom MTP in fresh culture medium and incubated with Redimune® NF Liquid for 15 min at RT to block unspecific binding. […] After washing and centrifugation MFI signals of stained cells were analyzed by BD Biosciences FACSCanto flow cytometer.

human TIM-3 on cells [15] = molecular target: T4, human TIM-3 on cells; assay: flow cytometry, human CD14+ monocytes donor2
Source text: as §3, §4

human TIM-3 on cells [16] = molecular target: T4, human TIM-3 on cells; assay: flow cytometry, human CD14+ monocytes donor3
[17] = molecular target: T6, human FolR2 ECD-AcTev-Fcknob-Avi tag + Fc hole, biotinylated monomeric Fc fusion (human, UniProt P0DOX5 223-449 = IgG part); assay: SPR, IgG single injection
T6 construct: also called huFolR2; FolR2-Fc

[18] = molecular target: T7, human FolR3 ECD-AcTev-Fcknob-Avi tag + Fc hole, biotinylated monomeric Fc fusion (human, UniProt P0DOX5 223-449 = IgG part); assay: SPR, IgG single injection
T7 construct: also called huFolR3; FolR3-Fc

[19] = molecular target: T1, murine FolR1 ECD-AcTev-Fcknob-Avitag + …; assay: SPR ProteOn, Fab analyte; remark: listed apart in the source
Procedure: (§5) Immobilization of antigens (ligand): Recombinant antigens were diluted with PBST (10 mM phosphate, 150 mM sodium chloride pH 7.4, 0.005% Tween 20) to 10 μg/ml, then injected at 30 μl/minute in vertical orientation.
(§6) Injection of analytes: For ‘one-shot kinetics’ measurements, injection direction was changed to horizontal orientation, two-fold dilution series of purified Fab (varying concentration ranges) were injected simultaneously along separate channels 1-5, with association times of 200 s, and dissociation times of 600 s. Buffer (PBST) was injected along the sixth channel to provide an “in-line” blank for referencing. Association rate constants (kₒₙ) and dissociation rate constants (koff) were calculated using a simple one-to-one Langmuir binding model in ProteOn Manager v3.1 software by simultaneously fitting the association and dissociation sensorgrams. The equilibrium dissociation constant (KD) was calculated as the ratio koff/kₒₙ.

[20] = molecular target: T6, human FolR2 ECD-AcTev-Fcknob-Avi tag + …; assay: SPR ProteOn, Fab analyte
Procedure: as §5, §6

[21] = molecular target: human FolR2 on transiently transfected HEK cells (human, UniProt P14207 17-230); assay: flow cytometry on HEK cells transiently transfected with human FolR2, anti-human secondary antibody; concentration not given
[22] = molecular target: T7, human FolR3 ECD-AcTev-Fcknob-Avi tag + …; assay: SPR ProteOn, Fab analyte
Procedure: as §5, §6

human FolR2 on transiently transfected HEK cells, sequence (P14207 17-230 limits assumed): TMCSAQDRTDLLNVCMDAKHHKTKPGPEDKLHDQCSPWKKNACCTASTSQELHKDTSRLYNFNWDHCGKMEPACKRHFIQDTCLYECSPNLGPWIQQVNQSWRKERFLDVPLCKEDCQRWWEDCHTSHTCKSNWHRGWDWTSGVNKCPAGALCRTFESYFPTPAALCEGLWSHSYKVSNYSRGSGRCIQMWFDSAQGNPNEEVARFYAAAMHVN

B1: 6B6 IgG (antibody, V domains shown)
VH: QVQLVQSGAEVKKPGASVKVSCKASGYTFTSYYMHWVRQAPGQGLEWMGIINPSGGSTSYAQKFQGRVTMTRDTSTSTVYMELSSLRSEDTAVYYCARSYVDMDYWGQGTLVTVSS
VL: EIVLTQSPGTLSLSPGERATLSCRASQSVSSSYLAWYQQKPGQAPRLLIYGASSRATGIPDRFSGSGSGTDFTLTISRLEPEDFAVYYCQQDIWSPTFGQGTKVEIK
notes: human IgG1
Does B1 bind [1]?
Result: no binding (tested: 500 nM)

B2: 5D9 Fab (Fab, V domains shown)
VH: B1 VH with V101I
VL: B1 VL with I93N
Does B2 bind [2]?
Result: no binding

B3: 6B6 Fab (Fab, V domains shown)
VH: B1 VH
VL: B1 VL
Does B3 bind [2]?
Result: no binding

B4: 11F8 Fab (Fab, V domains shown)
VH: QVQLVQSGAEVKKPGSSVKVSCKASGGTFSSYAISWVRQAPGQGLEWMGGIIPIFGTANYAQKFQGRVTITADKSTSTAYMELSSLRSEDTAVYYCARAVFYRAWYSFDYWGQGTTVTVSS
VL: DIQMTQSPSTLSASVGDRVTITCRASQSISSWLAWYQQKPGKAPKLLIYDASSLESGVPSRFSGSGSGTEFTLTISSLQPDDFATYYCQQYTSPPPTFGQGTKVEIK
For B4, which Kd [2] is on record?
The Kd was 1200 nM.

B5: aTim3 0018MutNQ (antibody, V domains shown)
VH: QVTLKESGPGILQPSQTLSLTCSFSGFSLSTSGMSVGWIRQPSGKGLEWLAHIWLNDDVFFNPALKRRLTISKDTSNNQVFLQIASVVTADTATYYCVRANGYLYALDYWGQGISVTVSS
VL: QIVLTQSPAIMSASPGQKVTITCSASSSVQYTQWYQQKLGSSPKLWIYDAFKLAPGVPARFSGSGTGTSYSLTISSMEAEDAASYFCHQWSSYPWTFGGGTKLEIK
notes: also called aT3m3 0018MutNQ
Which inflexion point (cynomolgus Tim3 (ELISA) [3]) does the source give for B5 here?
Its inflexion point is 10.8 ng/mL.

And the inflexion point (Tim3-ECD-His-Biotin [4])?
The inflexion point was 10.8 ng/mL.

What about the inflexion point (human TIM-3 on cells [5]) of the same binder?
The inflexion point was 12.8 ng/mL.

And the EC50 (cynomolgus Tim3 (ELISA) [6])?
Its EC50 is 13.2 ng/mL.

And the EC50 (Tim3-ECD-His-Biotin [7])?
Its EC50 is 12 ng/mL.

And the EC50 (human TIM-3 on cells [8])?
Its EC50 is 13.4 ng/mL.

B6: aTim3 0016MutNS (antibody, V domains shown)
VH: B5 VH with S19R, R67S, I114T
VL: B5 VL with Q30S
Which results are given for B6?
inflexion point (cynomolgus Tim3 (ELISA) [3]): 5.5 ng/mL; inflexion point (Tim3-ECD-His-Biotin [4]): 6.5 ng/mL; inflexion point (human TIM-3 on cells [5]): 8.5 ng/mL; EC50 (cynomolgus Tim3 (ELISA) [6]): 9.7 ng/mL; EC50 (Tim3-ECD-His-Biotin [7]): 8.5 ng/mL; EC50 (human TIM-3 on cells [8]): 9.1 ng/mL

B7: aTim3 0018MutNS (antibody, V domains shown)
VH: B5 VH
VL: B5 VL with Q30S
notes: also called aT3m3 0018MutNS
With B7 as the binder, how does the inflexion point (cynomolgus Tim3 (ELISA) [3]) read?
Its inflexion point is 6.5 ng/mL.

What about the inflexion point (Tim3-ECD-His-Biotin [4]) of the same binder?
Its inflexion point is 6.5 ng/mL.

And the inflexion point (human TIM-3 on cells [5])?
The inflexion point was 11.1 ng/mL.

What about the EC50 (cynomolgus Tim3 (ELISA) [6]) of the same binder?
The EC50 was 11.9 ng/mL.

And the EC50 (Tim3-ECD-His-Biotin [7])?
The EC50 was 10.3 ng/mL.

And the EC50 (human TIM-3 on cells [8])?
Its EC50 is 11.2 ng/mL.

B8: aTim3 0016 MutNQ (antibody, V domains shown)
VH: B5 VH with S19R, R67S, I114T
VL: B5 VL
Which inflexion point (cynomolgus Tim3 (ELISA) [3]) does the source give for B8 here?
Its inflexion point is 5.7 ng/mL.

What about the inflexion point (Tim3-ECD-His-Biotin [4]) of the same binder?
Its inflexion point is 5.7 ng/mL.

And the inflexion point (human TIM-3 on cells [5])?
The inflexion point was 5.4 ng/mL.

What about the EC50 (cynomolgus Tim3 (ELISA) [6]) of the same binder?
The EC50 was 8.3 ng/mL.

And the EC50 (Tim3-ECD-His-Biotin [7])?
Its EC50 is 7.6 ng/mL.

And the EC50 (human TIM-3 on cells [8])?
The EC50 was 6.8 ng/mL.

B9: Tim3_0028 (antibody, V domains shown)
VH: EVQLQQSVAELVRPGASVKLSCTASGFNIKTTYMHWVKQRPEQGLEWIGRIDPADDNTKYAPKFQGKATITADTSSNTAYLQLSSLTSEDAAIYYCVRDFGYVAWFAYWGQGTLVTFSA
VL: NIVMTPTPKFLPVSSGDRVTMTCRASQSVDNYVAWYQQKPGQSPKLLIYYASNRYIGVPDRFTGSGSGTDFTFTISSVQVEDLAVYFCQQHYSSPYTFGSGTKLEIK
For B9, which “IFN-gamma release in MLR at 1 µg/ml, % of IL-2 control” value (human TIM-3 on cells [9]) is on record?
The value was 12%.

And the “internalization at 30 Min, RPMI-8226” value (human TIM-3 on cells [10])?
Its value is 50%.

What about the “internalization at 60 Min, RPMI-8226” value (human TIM-3 on cells [10]) of the same binder?
Its value is 59%.

What about the “internalization at 120 Min, RPMI-8226” value (human TIM-3 on cells [10]) of the same binder?
The value was 67%.

And the “internalization at 240 Min, RPMI-8226” value (human TIM-3 on cells [10])?
Its value is 68%.

And the “internalization at 26 h, RPMI-8226” value (human TIM-3 on cells [10])?
The value was 83%.

What about the MFI [11] of the same binder?
Its MFI is 3940 MFI.

And the MFI [12]?
Its MFI is 3000 MFI.

What about the MFI [13] of the same binder?
The MFI was 4090 MFI.

What about the “specific binding MFI” value (human TIM-3 on cells [14]) of the same binder?
The value was 1350 MFI.

And the “specific binding MFI” value (human TIM-3 on cells [15])?
Its value is 950 MFI.

And the “specific binding MFI” value (human TIM-3 on cells [16])?
Its value is 1610 MFI.

B10: 16F12 IgG (antibody, V domains shown)
VH: QVQLVQSGAEVKKPGASVKVSCKASGYTFTSYYMHWVRQAPGQGLEWMGIINPSGGSTSYAQKFQGRVTMTRDTSTSTVYMELSSLRSEDTAVYYCARNFTVLRVPFDYWGQGTLVTVSS
VL: QAVVTQEPSLTVSPGGTVTLTCGSSTGAVTTSNYANWVQEKPGQAFRGLIGGTNKRAPGTPARFSGSLLGGKAALTLSGAQPEDEAEYYCALWYSNLWVFGGGTKLTVL
notes: human IgG1
Does B10 bind [1]?
Result: no binding (tested: 500 nM)

Does B10 bind [17]?
Result: no binding (tested: 500 nM)

Does B10 bind [18]?
Result: no binding (tested: 500 nM)

B11: 21A5 Fab (Fab, V domains shown)
VH: not shown
VL: B10 VL
Does B11 bind [19]?
Result: no binding

Does B11 bind [20]?
Result: no binding

B12: 21A5 IgG (antibody, V domains shown)
VH: not shown
VL: B10 VL
notes: human IgG1
What does the source list for B12?
binding result [1]: no binding (tested: 500 nM); binding result [17]: no binding (tested: 500 nM); binding result [21]: no binding

B13: 16D5 IgG (antibody, V domains shown)
VH: not shown
VL: B10 VL
notes: human IgG1
Does B13 bind [1]?
Result: no binding (tested: 500 nM)

Does B13 bind [17]?
Result: no binding (tested: 500 nM)

Does B13 bind [18]?
Result: no binding (tested: 500 nM)

Does B13 bind [21]?
Result: no binding

B14: 16D5 Fab (Fab, V domains shown)
VH: not shown
VL: B10 VL
Does B14 bind [19]?
Result: no binding

Does B14 bind [20]?
Result: no binding

Does B14 bind [22]?
Result: no binding

B15: 21G8 Fab (Fab, V domains shown)
VH: not shown
VL: B10 VL
Does B15 bind [19]?
Result: no binding

B16: 15B6 IgG (antibody, V domains shown)
VH: B10 VH with F100Y, T101Y, V102I, L103G, R104I
VL: B10 VL
notes: human IgG1
Does B16 bind [1]?
Result: no binding (tested: 500 nM)

Does B16 bind [17]?
Result: no binding (tested: 500 nM)

Does B16 bind [18]?
Result: no binding (tested: 500 nM)

B17: 21G8 IgG (antibody, V domains shown)
VH: not shown
VL: B10 VL
notes: human IgG1
Does B17 bind [1]?
Result: no binding (tested: 500 nM)

Does B17 bind [21]?
Result: binds

Reference: US20210087291A1 (Hoffmann-La Roche, published 2021)
